Test system: N[C@H](COP(=O)(O)O)Cc1c[nH]cn1
Test: purified protein
Conditions: 100 mM Tris/HCl pH 7.8, 5 mM MgCl2, 25°C

Substance: ecHisB‐N (Escherichia coli K-12)
- Km: 48 ± 3 µM
- kcat: 2.8 ± 0.1 s⁻¹
- kcat/Km: 58000 M⁻¹ s⁻¹
